# Values quoted from earlier work, collected in US5624831A, “Immobilized acetylcholinesterase stabilized by a film of gelatin or albumin containing trehalose” (priority 1994, dated 1997).
# System: acetylcholinesterase extracted from the torpedo fish
# Conditions: kept dry at 4° C. for longer than 7 days
molecule,measurement,value
"acetylcholinesterase extracted from the torpedo fish: acetylcholinesterase extracted from the torpedo fish (protein, UniProt P04058 22-564, looked up) Acetylcholinesterase: DDHSELLVNTKSGKVMGTRVPVLSSHISAFLGIPFAEPPVGNMRFRRPEPKKPWSGVWNASTYPNNCQQYVDEQFPGFSGSEMWNPNREMSEDCLYLNIWVPSPRPKSTTVMVWIYGGGFYSGSSTLDVYNGKYLAYTEEVVLVSLSYRVGAFGFLALHGSQEAPGNVGLLDQRMALQWVHDNIQFFGGDPKTVTIFGESAGGASVGMHILSPGSRDLFRRAILQSGSPNCPWASVSVAEGRRRAVELGRNLNCNLNSDEELIHCLREKKPQELIDVEWNVLPFDSIFRFSFVPVIDGEFFPTSLESMLNSGNFKKTQILLGVNKDEGSFFLLYGAPGFSKDSESKISREDFMSGVKLSVPHANDLGLDAVTLQYTDWMDDNNGIKNRDGLDDIVGDHNVICPLMHFVNKYTKFGNGTYLYFFNHRASNLVWPEWMGVIHGYEIEFVFGLPLVKELNYTAEEEALSRRIMHYWATFAKTGNPNEPHSQESKWPLFTTKEQKFIDLNTEPMKVHQRLRVQMCVFWNQFLPKLLNATACDGELSS",loss of enzymatic activity (in words),looses normally all its enzymatic activity
